Laboratory results reported in publication PMC8480326, “Chemoenzymatic glycan-selective remodeling of a therapeutic lysosomal enzyme with high-affinity M6P-glycan ligands. Enzyme substrate specificity is the name of the game” (Chemical Science, 2021).

Target: T1, Recombinant human IGF-II R (CI-MPR) (Homo sapiens, UniProt P11717)
T1 construct: purchased R&D Systems
Test: SPR binding to immobilized CI-MPR
Description: Surface Plasmon Resonance (SPR) Measurements. SPR measurements were performed on a Biacore T200 instrument (GE Healthcare). Recombinant human IGF-II R (CI-MPR) was purchased
from R&D Systems. Approximately 7000 resonance units (RU) of CI-MPR was immobilized on a
CM5 sensor chip in a sodium acetate buffer (25 μg/mL, pH 4.0) at 25 °C, using the amine coupling kit
provided by the manufacturer. Mannose 6-phosphate containing glycopeptides or glycoproteins were
determined at 25 °C under a flow rate of 10 μL/min. HBS-P+ buffer (10 mM HEPES, 150 mM NaCl,
0.05% surfactant P20, pH 7.4) was used as sample buffer and running buffer. Association was
measured for 3 min and dissociation for 10 min at same flow rate (10 μL/min). The surface
and glycoprotein analytes flowed over an immobilized chip with 2-fold serial dilution of the highest
concentration of 4 μM (for glycopeptides) or 1 μM (for RNase B) or 250 nM (for rhGAA).
analyses were performed by global fitting of the binding data to a 1:1 Langmuir binding model using

T1 sequence (P11717 41-2491): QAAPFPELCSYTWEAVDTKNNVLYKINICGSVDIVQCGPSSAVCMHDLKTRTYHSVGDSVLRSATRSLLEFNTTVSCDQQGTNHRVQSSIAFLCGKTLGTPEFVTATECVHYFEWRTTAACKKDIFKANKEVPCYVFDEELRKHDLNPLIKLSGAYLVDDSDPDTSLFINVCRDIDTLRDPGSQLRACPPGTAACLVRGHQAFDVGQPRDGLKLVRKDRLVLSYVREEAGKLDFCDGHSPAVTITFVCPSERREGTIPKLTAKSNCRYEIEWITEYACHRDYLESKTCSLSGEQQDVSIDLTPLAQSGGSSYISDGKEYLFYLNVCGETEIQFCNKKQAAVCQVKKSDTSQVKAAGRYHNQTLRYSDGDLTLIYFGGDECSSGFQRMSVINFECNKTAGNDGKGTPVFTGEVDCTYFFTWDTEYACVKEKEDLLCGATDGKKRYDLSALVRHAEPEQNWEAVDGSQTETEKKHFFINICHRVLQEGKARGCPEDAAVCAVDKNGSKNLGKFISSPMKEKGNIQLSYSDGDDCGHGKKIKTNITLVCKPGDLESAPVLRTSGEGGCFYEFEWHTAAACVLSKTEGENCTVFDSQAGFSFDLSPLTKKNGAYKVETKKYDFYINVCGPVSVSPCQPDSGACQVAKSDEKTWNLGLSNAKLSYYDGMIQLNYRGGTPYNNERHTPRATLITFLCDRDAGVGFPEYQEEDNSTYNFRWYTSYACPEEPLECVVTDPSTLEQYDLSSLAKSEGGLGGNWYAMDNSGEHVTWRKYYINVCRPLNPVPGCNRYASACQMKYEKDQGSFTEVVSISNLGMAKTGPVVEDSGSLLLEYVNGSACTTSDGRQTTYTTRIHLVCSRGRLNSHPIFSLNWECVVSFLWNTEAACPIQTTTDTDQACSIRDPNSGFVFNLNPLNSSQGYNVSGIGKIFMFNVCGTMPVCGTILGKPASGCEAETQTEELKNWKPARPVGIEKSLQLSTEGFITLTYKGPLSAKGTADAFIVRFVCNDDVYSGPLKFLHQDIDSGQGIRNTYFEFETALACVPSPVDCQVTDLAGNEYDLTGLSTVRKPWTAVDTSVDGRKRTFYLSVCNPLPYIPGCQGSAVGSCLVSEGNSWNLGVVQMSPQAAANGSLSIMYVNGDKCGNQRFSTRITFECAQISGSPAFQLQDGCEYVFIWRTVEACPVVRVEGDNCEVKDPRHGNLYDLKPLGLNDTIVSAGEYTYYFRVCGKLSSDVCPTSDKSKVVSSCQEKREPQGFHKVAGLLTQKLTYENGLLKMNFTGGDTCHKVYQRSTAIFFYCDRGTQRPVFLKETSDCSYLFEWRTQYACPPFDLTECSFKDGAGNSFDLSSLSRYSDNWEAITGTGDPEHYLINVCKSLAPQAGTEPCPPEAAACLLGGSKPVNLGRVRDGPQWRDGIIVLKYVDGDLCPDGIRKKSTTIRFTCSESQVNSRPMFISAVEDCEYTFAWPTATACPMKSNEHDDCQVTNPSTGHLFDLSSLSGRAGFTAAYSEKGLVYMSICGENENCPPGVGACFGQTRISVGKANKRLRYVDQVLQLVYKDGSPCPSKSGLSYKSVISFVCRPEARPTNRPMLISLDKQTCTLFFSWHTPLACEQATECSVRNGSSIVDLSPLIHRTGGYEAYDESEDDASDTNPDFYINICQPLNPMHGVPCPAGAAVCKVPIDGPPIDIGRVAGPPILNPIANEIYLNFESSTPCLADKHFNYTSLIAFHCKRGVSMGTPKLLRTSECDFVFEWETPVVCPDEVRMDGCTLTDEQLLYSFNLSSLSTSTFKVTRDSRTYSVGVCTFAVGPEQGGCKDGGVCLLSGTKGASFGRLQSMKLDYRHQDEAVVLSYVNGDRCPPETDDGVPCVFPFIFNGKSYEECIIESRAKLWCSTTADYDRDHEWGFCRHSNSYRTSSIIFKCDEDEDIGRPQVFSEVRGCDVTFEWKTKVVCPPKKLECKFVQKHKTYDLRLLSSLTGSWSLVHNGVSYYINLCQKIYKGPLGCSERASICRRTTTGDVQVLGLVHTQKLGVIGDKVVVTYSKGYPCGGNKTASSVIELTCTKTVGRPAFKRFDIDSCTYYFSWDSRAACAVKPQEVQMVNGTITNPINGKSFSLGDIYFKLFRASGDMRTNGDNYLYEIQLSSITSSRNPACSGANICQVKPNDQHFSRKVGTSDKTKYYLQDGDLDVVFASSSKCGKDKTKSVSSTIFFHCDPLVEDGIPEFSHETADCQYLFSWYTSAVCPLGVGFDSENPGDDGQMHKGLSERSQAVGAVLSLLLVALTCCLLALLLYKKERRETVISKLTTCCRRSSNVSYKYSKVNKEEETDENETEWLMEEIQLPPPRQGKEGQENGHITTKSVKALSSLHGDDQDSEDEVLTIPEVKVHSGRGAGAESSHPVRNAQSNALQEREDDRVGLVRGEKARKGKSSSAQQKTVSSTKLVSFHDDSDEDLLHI

B1: 68: M6P-containing RNase B, remodeled with tetrasaccharide oxazoline 8 by Endo-A (protein, UniProt P61823 27-150, looked up)
Ribonuclease pancreatic: KETAAAKFERQHMDSSTSAASSSNYCNQMMKSRNLTKDRCKPVNTFVHESLADVQAVCSQKNVACKNGQTNCYQSYSTMSITDCRETGSSKYPNCAYKTTQANKHIIVACEGNPYVPVHFDASV
modifications: M6P-tetrasaccharide glycan remodeled by Endo-A
notes: M6P-containing RNase B, remodeled with tetrasaccharide oxazoline 8 by Endo-A
**Q.** Which results are given for B1?
**A.** Kd (SPR, immobilized CI-MPR, 25 °C, average of three independent experiments): 15.8 nM; Ka (representative SPR sensorgram, 1:1 Langmuir fit, association constant): 6.877E+4; Kd (representative SPR sensorgram, single experiment): 15.5 nM
